Laboratory results as given in US10829756B2, “Discovery of enzymes from the alpha-keto acid decarboxylase family” (Regents of the University of California, priority 2015, dated 2020).
Values joined by “and” are separate entries in the source; they are usually repeats but may differ in a detail not shown here. Equal entries are not always repeated.

Assays:
[1] = In vitro steady-state kinetics of purified 2-ketoacid decarboxylases (ADH/NADH-coupled), C5 substrate; type: biochemical; conditions: relative to GEO 175
Experimental: (§1) For the native KIVD and KIVD_VLV mutant, 2 ml overnight cultures of XL1B cells were transformed with pQE9 containing N-terminal his-tagged KIVD enzymes and grown in Terrific Broth (BP biomedical, Cat#3046-042) with 50 μg/mL of carbenicillin. (Fisher scientific, Cat# BP2648-5) For the GEOs, 2 ml overnight cultures of BLR cells were transformed with pet29b+ plasmid containing N-terminal his-tagged GEOs, and grown in Terrific Broth with 50 μg/mL of kanamycin. (Fisher scientific, Cat# BP906-5) These cultures were diluted 1:1000 in 500 mL of Terrific Broth with 1 mM MgSO4, 1% glucose, and 50ug/mL of corresponding antibiotics, then grown at 37° C. for 24 hours. […] Protein concentrations were determined using a Synergy H1 spectrophotometer (Biotek) by measuring absorbance at 280 nm using their calculated extinction coefficients with ExPASy ProtParam Tool.^33 All other buffers and salts were purchased from Fisher Scientific unless otherwise specified.
(§2) The kcat and KM values of selective KIVD mutants were measured for the substrates: C3, C5, isoC5, and C8. […] Activity was measured at 0.005 mM to 10 mM substrates. […] Absorbance readings were taken every 1-minute at OD340 at 21° C. for 60 minutes using the Synergy H1. Kinetic parameters (kcat and KM) were determined by fitting initial velocity versus substrate concentration data to the Michaelis-Menten equation.

[2] = In vitro steady-state kinetics of purified 2-ketoacid decarboxylases (ADH/NADH-coupled), C8 substrate; type: biochemical; conditions: relative to GEO 175
Experimental: as §1, §2

[3] = test system: synthetic recursive+1 pathway; experiment: In vivo alcohol production of the synthetic recursive+1 pathway (fermentation, GC-FID); type: cell-based, E. coli
Experimental: The measured specificity and activity for each enzyme was used to select two candidates for further characterization of their ability to modulate alcohol production in vivo. The two enzymes with the highest activity and specificity (FIG. 4), KIVD_VLV and GEO 175, were tested for their ability to reprogram the synthetic recursive+1 pathway to produce long-chain alcohol products in vivo. The alcohol-producing biochemical pathway was adapted from a previous study used to synthesize alcohols of various lengths.^3,4 Starting from glucose, the aforementioned+1 pathway, involving LeuABCD, recursively elongates 2-ketoacids, starting with 2-ketobutyrate, into longer chained 2-ketoacids. These 2-ketoacids are then converted to aldehydes by ketoacid decarboxylases (native KIVD, KIVD_VLV, and GEO 175) and subsequently to alcohols by an alcohol dehydrogenase. Carbon flux through this alcohol synthesizing biochemical pathway is enhanced by overexpressing thrABC, ilvA, LeuABCD, and ADH6 on inducible plasmids transformed into E. coli.^3 The effects of overexpression were furthermore supported and maintained by knocking out the threonine exporter enzyme RhtA and the primary DNA recombination degradation enzyme RecA. The enzyme AdhE was also knocked out, which helps raise long chain alcohol production by eliminating a competing pathway where acetyl-CoA is directly converted to ethanol.^19
Genes were removed from the ATCC 98082 ΔrhtA strain genome using P1 transduction from the Keio collection as previously.^32 The aldehyde-alcohol dehydrogenase gene (adhE) was knocked out to eliminate ethanol production from acetyl-coA. In all strains, recA was knocked out to prevent recombination between the genome and plasmids, thereby stabilizing the transformants. Primers used to target recA for knockout were designed based on the Keio collection (Genobase, ecoli.aist-nara.ac.jp) and ordered from Integrated DNA Technologies.
For n-alcohol production, strains of ST128 were transformed with pZS_thrO, pZAlac_ilvABSleuA, and pZE_LeuA*BCDK*A6 containing various kivd mutations. Fermentation conditions were adapted from those in previous works,^3,4 with the following changes: 20 mL of medium was used, with 100 μg/mL ampicillin, […] kanamycin, and 100 μg/mL spectinomycin added. Cells were grown to an optical density at 600 nm of ˜0.6, followed by induction with 0.1 mM isopropyl-b-D-thiogalactoside (IPTG). After fermentation, cells were centrifuged for 15 minutes at 4000×g and 4° C. The supernatant was split into two fractions for analysis, 5 mL for short chain alcohols (ethanol, 1-propanol, and 1-butanol), and 15 mL for long chain alcohols (1-pentanol, 1-hexanol, 1-heptanol, and 1-octanol). Long chain alcohols were extracted from the 15 mL fraction by 3 mL n-hexane prior to analysis. GC-FID analysis was performed as previously described.^4

[4] = High-throughput pH-dependent colorimetric assay of KIVD mutant libraries in crude cell extracts; type: biochemical; conditions: combinatorial KIVD mutants
Experimental: Partially degenerate oligonucleotides were ordered from Integrated DNA Technologies (San Diego, Calif.) and were used to generate libraries of kivd mutants (with N-terminal his tags) by PCR. Library DNA was purified, inserted into the PCR-amplified pQE9 vector by isothermal Gibson assembly,^31 and transformed into XL1-Blue cells. Individual ampicillin-resistant colonies were picked and grown in 96-well blocks at 37° C. overnight. The number of colonies picked was three times the theoretical library size to ensure approximately 95% probability of all possible mutation combinations occurring. Glycerol was added to 25% (w/v) and libraries were stored at −80° C. until enzyme activity and specificity were assayed. KIVD mutant libraries were screened using a pH-monitored enzyme assay (method explained below) to measure the rate of H^+ consumption resulting from the decarboxylation of 2-ketoacids.
KIVD mutant libraries were grown overnight in culture blocks, diluted 1:100 into fresh media (Luria Broth), grown at 37° C. for 3 hours to OD600 ˜0.6, induced with 0.1 mM IPTG (GoldBio, Saint Louis, Mo.), and grown for 2 additional hours at 37° C. Cells from the well blocks were transferred to 96-well assay plates (Costar, Corning, N.Y.) and cell density was measured at 600 nm. […] Absorbance was measured at 615 nm in a spectrophotometer (TEK Powerwave XS, BioTek, Winooski, Vt.). […]

[5] = forty hours, microaerobic, defined media

Molecule	effect on shorter chain substrates [1]	effect on catalytic efficiency on C8 [2]	drop of overall alcohol production from that obtained with KIVD [3] [fold]	heptanol share of alcohol production [3] [%]	hexanol share of alcohol production [3] [%]	major alcohol product [3]	pentanol share of alcohol production [3] [%]	1-Ethanol production [3, 5]	1-Heptanol production [3, 5]	1-Hexanol production [3, 5]	1-Octanol production [3, 5]	1-Pentanol production [3, 5]	1-Propanol production [3, 5]	long chain (≥C5) alcohols produced ([3]; sum of long chain alcohols) [mg/L]	specificity for C8 and activity in colorimetric screening [4]
GEO175 L376T_T240S: engineered mutant of GEO 175 containing two amino acid changes (L376T, T240S), SEQ ID NO:19 (protein, Synthetic mutant of GEO175) MRTVRESALDVLRARGMTTVFGNPGSTELPMLKQFPDDFRYVLGLQEAVVVGMADGFALASGTTGLVNLHTGPGTGNAMGAILNARANRTPMVVTAGQQVRAMLTMEALLTNPQSTLLPQPAVKWAYEPPRAADVAPALARAVQVAETPPQGPVFVSLPMDDFDVVLGEDEDRAAQRAAARTVTHAAAPSAEVVRRLAARLSGARSAVLVAGNDVDASGAWDAVVELAERTGLPVWSAPSEGRVAFPKSHPQYRGMLPPAIAPLSRCLEGHDLVLVIGAPVFCYYPYVPGAHLPENTELVHLTRDADEAARAPVGDAVVADLALTVRALLAELPAREAAAPAARTARAESTAEVDGVLTPLAAMTAIAQGAPANTTWVNESPSNLGQFHDATRIDTPGSFLFTAGGGLGFGLAAAVGAQLGAPDRPVVCVIGDGSTHYAVQALWTAAAYKVPVTFVVLSNQRYAILQWFAQVEGAQGAPGLDIPGLDIAAVATGYGVRAHRATGFGELSKLVRESALQQDGPVLIDVPVTTELPTL	negligible effect	decrease catalytic efficiency on C8													
KIVD_VLV: KIVD triple mutant G402V/M538L/F542V, SEQ ID NO:3 (protein, Synthetic protein KIVD_VLV) MYTVGDYLLDRLHELGIEEIFGVPGDYNLQFLDQIISRKDMKWVGNANELNASYMADGYARTKKAAAFLTTFGVGELSAVNGLAGSYAENLPVVEIVGSPTSKVQNEGKFVHHTLADGDFKHFMKMHEPVTAARTLLTAENATVEIDRVLSALLKERKPVYINLPVDVAAAKAEKPSLPLKKENSTSNTSDQEILNKIQESLKNAKKPIVITGHEIISFGLEKTVSQFISKTKLPITTLNFGKSSVDEALPSFLGIYNGKLSEPNLKEFVESADFILMLGVKLTDSSTGAFTHHLNENKMISLNIDEGKIFNESIQNFDFESLISSLLDLSEIEYKGKYIDKKQEDFVPSNALLSQDRLWQAVENLTQSNETIVAEQGTSFFGASSIFLKPKSHFIGQPLWVSIGYTFPAALGSQIADKESRHLLFIGDGSLQLTVQELGLAIREKINPICFIINNDGYTVEREIHGPNQSYNDIPMWNYSKLPESFGATEERVVSKIVRTENEFVSVMKEAQADPNRMYWIELILAKEDAPKVLKKLGKLVAEQNKS			~10	37	47	Hexanol (C6)	16	no ethanol or propanol production is observed	269 mg/L and 269 ± 23 mg/L	341 mg/L and 341 ± 63 mg/L	not observed	118 mg/L and 118 ± 29 mg/L	no ethanol or propanol production is observed	728	highest specificity and activity
